This passage reports kobs and koff results from PMC10757996.

In assay [1] the target is Arginylglycylaspartic acid (RGD) peptide grafted on poly-L-lysine-graft-poly(ethylene glycol) (PLL-g-PEG/PEG-RGD). Nature of the assay: SPR; Goos-Hänchen lateral position shift read-out on a silver-GST plasmonic substrate; PLL-PEG-RGD immobilised on the GST layer through MPTES; 10 μg/mL integrin proteoliposomes flowed over; running buffer 1:10 dilution of PBS; lowest Mn2+ concentration of the series (1 nM); exponential fits of association and dissociation.

For assay [2] the target is unchanged. Briefly: SPR; Goos-Hänchen lateral position shift read-out on a silver-GST plasmonic substrate; PLL-PEG-RGD immobilised on the GST layer through MPTES; 10 μg/mL integrin proteoliposomes flowed over; running buffer 1:10 dilution of PBS; highest Mn2+ concentration of the series (1 mM); exponential fits of association and dissociation.

As for “αIIbβ3 integrin reconstituted into liposomes (integrin-embedded proteoliposomes) (from UniProt P08514 32-1039; P05106 27-788) (complex)”, in assay [1], the kobs is 0.101 min⁻¹ and the koff is 0.00957 s⁻¹. In assay [2], the kobs was 0.146 min⁻¹ and the koff worked out at 0.00448 s⁻¹.
